The record followed here is patent US20210220450A1, “TREATMENT OF AN IOP CONDITION” (The Research Foundation for The State University of New York, priority 2013, published 2021).

Series [1] deals with MMP-2, MMP-9, MMP-13. The series is described as follows: MMP expression in PA treated HTM cells (Examples 17, 18). In kind it is cell-based.
The test system of series [2] is Mmp-2, Mmp-9, Mmp-13. Description: Mmp expression in Tg-MYOCY437H angle ring tissue (Example 19). The settings on record: 2 days, vs BSA treated eyes. In kind it is in vivo, mouse. The procedure: Eyes were flash frozen in liquid nitrogen after outflow facility determination and subsequently dissected on ice to obtain the angle ring tissues containing the TM, as previously described (Kumar, Shah et al. 2013). Dissected TM tissues were immersed in RNAlater solution (Invitrogen, Waltham, Mass., USA) and then snap-frozen and stored at −80° C. until RNA extraction. Tissue collected was pooled (four eyes) and homogenized in TRIzol reagent for RNA isolation, per manufacturer's instructions (Life Technologies, Carlsbad, Calif., USA). RNA concentration was determined with a Nanodrop ND-1000 Spectrophotometer (Thermo Scientific, Wilmington, Del., USA). cDNA was synthesized by using High-Capacity cDNA Reverse Transcription Kit (Applied Biosystems, Waltham, Mass., USA) according to manufacturer's protocol. Quantitative real-time PCR (qRT-PCR) was performed by using Green-2-Go qPCR Mastermix-ROX (Bio Basic, Amherst, N.Y., USA) on a QuantStudio 6 Flex thermal cycler (Applied Biosystems, Carlsbad, Calif., USA). mRNA expression of Plat, Plau, Pai-1, Mmp-2, Mmp-9, and Mmp-13 in angle ring tissues was determined. Primers were designed by using Primer-BLAST (https://www.ncbi.nlm.nih.gov/tools/primer-blast/index.cgi?LINK_LOC=BlastHome; in the public domain); primer sequences are listed in Table 2. Primer specificity was confirmed by agarose gel electrophoresis and multiple-sized amplification products were absent on inspection of melting curves. Target mRNA expression values were normalized to the expression levels of Rps11 (ribosomal protein S11). The relative fold change was calculated by using the ΔΔCt method (Hu, Wang et al. 2015). Outliers identified via the Thompson Tau test were removed from analysis.

In the next series the test system is Mmp-9KO mice. Description: Outflow facility in protein treated Mmp-9KO mouse eyes (Example 16). The settings on record: intravitreal protein, p>0.05. In kind it is in vivo. As for the experimental part: (§1) PlatKO and Mmp-9KO mice were also not given steroids prior to protein injections (FIG. 10c). Within each cohort, animals were divided into two groups:
(§2) 1) Animals that received unilateral intravitreal injection with 2 μl of tPA (5 μg/μl, Actilyse; Boehringer Ingelheim, Ingelheim am Rhein, Germany) while the contralateral eye received 2 μl of BSA (5 μg/μl; Gold Biotechnology, St Louis, Mo., USA), and 2) Animals that received unilateral intravitreal injections with 2 μl of non-enzymatically active tPA (NE-tPA/S478A-tPA) (5 μg/μl; Innovative Research, Novi, Mich., USA) while the contralateral eye received 2 μl of BSA. Animals were euthanized two days after intravitreal injection.
(§3) Outflow facility determination: Mouse eyes were enucleated immediately after euthanasia. Outflow facility was determined using a constant pressure method, as previously described. Pressure was raised in steps of 4 cmH2O, from 8 cmH2O (5.88 mmHg) to 32 cmH2O (23.54 mmHg) by increasing the height of a column of fluid of BSS. Steady state was initially achieved after 10 minutes. […] Flow was constantly measured via a microfluidic flow sensor (0.07-1.5 uL/min, MFS1; Elveflow, Paris, France). […] Any eyes that developed visible leaks during outflow facility determination, or that had pressure-flow correlations with R^2<0.9, were excluded from analysis but were used for RNA quantification.

For series [3], the system named is Mmp-2, Mmp-9, Mmp-13. Description: Mmp expression in protein treated PlatKO eyes (Example 14). In kind it is in vivo, mouse. To be noted: vs BSA treated eyes. As for the experimental part:
Tissue collection and confirmation of transgene expression: After outflow facility determination in adenovirus treated mice, mCherry expression in the TM was determined in all AdPLAT and AdPLATNE injected eyes. The eyes were dissected on ice to isolate a rim of tissue containing the TM by removing most of the iris and ciliary body. […] After observation, dissected rims were immediately immersed in RNA stabilizing agent (RNAlater, Invitrogen by ThermoFisher Scientific, Waltham, Mass., USA) and frozen. […]
RNA isolation and quantitative real time PCR: Tissue collected was pooled (four eyes) and homogenized in TRIzol reagent (Life Technologies, Carlsbad, Calif., USA). […] RNA concentration was determined with a Nanodrop ND-1000 Spectrophotometer (ThermoFisher Scientific, Waltham, Mass., USA). cDNA was synthesized by using High-Capacity cDNA Reverse Transcription Kit (Applied Biosystems, Waltham, Mass., USA) according to manufacturer's protocol. Quantitative real-time PCR (qRT-PCR) was performed by using Green-2-Go qPCR Mastermix-ROX (BioBasic, Amherst, N.Y., USA) on a QuantStudio 6 Flex thermal cycler (Applied Biosystems, Carlsbad, Calif., USA).
mRNA expression of sheep PLAT and mouse Mmp-2, Mmp-9, and Mmp-13 in angle ring tissues was determined. […] The relative fold change was calculated by using the ΔΔCt method. […]

Series [4] relates to Mmp-2, Mmp-9, Mmp-13, Plat. The series is described as follows: Mmp and Plat expression in protein treated C57BL/6J eyes not exposed to steroids (Example 15). In kind it is in vivo, mouse. To be noted: C57BL/6J not exposed to steroids.
For the next series, the system named is C57BL/6J mice. Description: Outflow facility in TA and protein treated C57BL/6J mouse eyes (Example 13). In kind it is in vivo. The settings on record: TA five days before intravitreal protein (2 μl, 5 μg/μl); two days after injection. As for the experimental part: C57BL/6J mice were divided into two groups:
1) Animals receiving bilateral steroid (TA) injection subconjunctivally five days prior to protein injection (FIG. 10b) and 2) Animals not receiving subconjunctival steroids (FIG. 10c).
as §2
as §3, with “BSS.” for “BSS. Steady state was initially achieved after 10 minutes.”

A further series relates to PlatKO mice. Description: Outflow facility in protein treated PlatKO mouse eyes (Example 14). In kind it is in vivo. The settings on record: intravitreal protein. The procedure:
as §1, §2, §3

For the next series, the system named is Tg-MYOCY437H mice. The series is described as follows: Outflow facility in Tg-MYOCY437H mouse eyes (Example 19). In kind it is in vivo. As for the experimental part:
To investigate whether corticosteroids affect outflow facility in Tg-MYOCY437H mice, animals received bilateral injections (20 μl) with either triamcinolone acetonide (TA) (40 mg/ml, Kenalog-40; Bristol-Myers Squibb, NY, USA) suspension or phosphate-buffered saline (PBS) (Gibco, ThermoFisher Scientific, Waltham, Mass., USA) subconjunctivally using a 100 μL Hamilton syringe with a 26-gauge needle (Precision Glide, Becton Dickinson & CO, Franklin Lakes, N.J., USA). They were euthanized one week later for outflow facility measurement.
To investigate whether tPA can affect outflow facility in Tg-MYOCY437H mice, and determine whether tPA enzymatic action is necessary for such an effect, intravitreal injections were performed using a 10 μL Hamilton syringe with 36-gauge stainless steel needles (WPI Inc, Sarasota, Fla., USA). […] Animals were sacrificed either two or five days after intravitreal injections for outflow facility measurement. […]
Mouse eyes were enucleated immediately after euthanasia. Outflow facility was determined using a microfluidic flow sensor (0.07-1.5 uL/min, MFS1; Elveflow, Paris, France) and constant pressure method, as previously described (Hu, Barron et al. 2019). […] Any eyes that developed visible leaks or that had pressure-flow correlations with […] were excluded from analysis but were used for RNA quantification.

Series [5] concerns Mmp-2, Mmp-9, Mmp-13. Description: Mmp expression in TA and protein treated C57BL/6J eyes (Example 13). In kind it is in vivo, mouse. The settings on record: vs BSA treated controls.

B1: RAP: inhibitor of LRP1 (protein, UniProt P30533 35-357, looked up)
Alpha-2-macroglobulin …: YSREKNQPKPSPKRESGEEFRMEKLNQLWEKAQRLHLPPVRLAELHADLKIQERDELAWKKLKLDGLDEDGEKEARLIRNLNVILAKYGLDGKKDARQVTSNSLSGTQEDGLDDPRLEKLWHKAKTSGKFSGEELDKLWREFLHHKEKVHEYNVLLETLSRTEEIHENVISPSDLSDIKGSVLHSRHTELKEKLRSINQGLDRLRRVSHQGYSTEAEFEEPRVIDLWDLAQSANLTDKELEAFREELKHFEAKIEKHNHYQKQLEIAHEKLRHAESVGDGERVSRSREKHALLEGRTKELGYTVKKHLQDLSGRISRARHNEL
On to B1, for which the MMP-9 expression result with MMP-2, MMP-9, MMP-13 [1] (added to PA+NE-tPA, vs PA+NE-tPA treated cells) is listed as “significantly lower”.

B2: NE-tPA: non-enzymatically active tPA, serine-478 replaced by alanine (Innovative Research) (protein)
chain: SYQVICRDEKTQMIYQQHQSWLRPVLRSNRVEYCWCNSGRAQCHSVPVKSCSEPRCFNGGTCQQALYFSDFVCQCPEGFAGKCCEIDTRATCYEDQGISYRGTWSTAESGAECTNWNSSALAQKPYSGRRPDAIRLGLGNHNYCRNPDRDSKPWCYVFKAGKYSSEFCSTPACSEGNSDCYFGNGSAYRGTHSLTESGASCLPWNSMILIGKVYTAQNPSAQALGLGKHNYCRNPDGDAKPWCHVLKNRRLTWEYCDVPSCSTCGLRQYSQPQFRIKGGLFADIASHPWQAAIFAKHRRSPGERFLCGGILISSCWILSAAHCFQERFPPHHLTVILGRTYRVVPGEEEQKFEVEKYIVHKEFDDDTYDNDIALLQLKSDSSRCAQESSVVRTVCLPPADLQLPDWTECELSGYGKHEALSPFYSERLKEAHVRLYPSSRCTAQHLLNRTVTDNMLCAGDTRSGGPQANLHDACQGDSGGPLVCLNDGRMTLVGIISWGLGCGQKDVPGVYTKVTNYLDWIRDNMRP
For the molecule B2, in the series with Mmp-2, Mmp-9, Mmp-13 [2], the Mmp-2 expression entry was “no significant difference”, the Mmp-9 expression entry was “significantly higher” and the Mmp-13 expression result is “significantly higher”. For the same molecule, in the series on Mmp-9KO mice, the “effect on outflow facility” value is on record as “did not increase”. Moreover, in the series on Mmp-2, Mmp-9, Mmp-13 [3], the Mmp-2 expression result is listed as “not significantly different” and the Mmp-9 expression entry is reported as “significant upregulation”. Besides, the “endogenous Plat expression” value in series [4] was “did not cause significant changes”. Also, the “gene expression changes in Mmp-2, Mmp-9 and Mmp-13” value in series [4] (vs BSA) is recorded as “not significantly different”. In addition, the “outflow facility, mean±standard deviation” value with C57BL/6J mice is reported as 114±40.3×10^−5 μl/min/mmHg. Moreover, in the series with PlatKO mice, the “increase in outflow facility compared to BSA treated eyes” value came out at 51%. Further, the “outflow facility, mean±standard deviation” value with PlatKO mice (no steroid, two days) is on record as 92±42×10^−5 μl/min/mmHg. In addition, the MMP-2 expression result in the series with MMP-2, MMP-9, MMP-13 [1] (PA treated HTM cells, between treatments) is reported as “not significantly different”. In addition, the “expression (FIG. 17C, MMP-9)” value in the series with MMP-2, MMP-9, MMP-13 [1] (PA treated HTM cells, vs PA+BSA) was “significant upregulation”. The “improvement of outflow facility” value in the series on Tg-MYOCY437H mice was around 37%. In addition, the “Mmp-2, Mmp-9 and Mmp-13 expression” value with Mmp-2, Mmp-9, Mmp-13 [5] is given as “significant upregulation”.
